The values below come from the nanobody polyreactivity screen of Harvey et al. (2022).

The data set can be described thus: yeast display, Sf9 membrane polyspecificity reagent, FACS + sequencing; frameworks hold sequencing errors. A digest of the protocol:
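Nanobodies from a synthetic yeast display library (Saccharomyces cerevisiae BJ5465), induced 36–48 hours with galactose, were stained 1 hour at 4 °C with 10% biotinylated, detergent-solubilized Sf9 membrane reagent, enriched on streptavidin microbeads, then FACS-sorted. Anti-HA (expression) and streptavidin (reagent binding) fluorescence set low and high (top ~1%) gates. Polyreactivity labels come from the gate of origin. Genes were colony-PCR amplified, MiSeq 2 × 250 sequenced and filtered by CDR length.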
As for “QVQLGESGGGLVQAGGSLRLSCAASGSILRSYAMGWYRQAPGKERELVAVINGSGDRTYYADSVKGRFTISRDTAKNTVYLQMNSLKPEDTAVYYCNVVRRSPGDYSYYYWGKGTQVTVSS”, the “polyreactivity (PSR sort gate)” value is recorded as “low polyreactivity”. Then “QVQLGESGGGLVQAGGSLRLSCAASGSIYVNAMGWYRQAPRKERELVAVISKSGGSTYYADSVKGRFTISRDNAKNTVYLQMNSLKPEETAVYYCAASRPSPGPRYGYWGQGTQVTVSS”, with “high polyreactivity”; and “QVQLGESGGGLVQAGGSLRLSCAASGSTFESYAMGWYRPAPGKEWELVAAINGGGRTYYADSVKGRFTISRDTAKNTVYLQMNSLNPEDTAVYYCAAEYRRGYYWPWGWEYYWGQGTQVTVSS”, with “low polyreactivity”; and “QVQLGESGGGLVQAGGSLRLSCAASGSTFHPHAMGWYRQAPGKERELVATIRRTGDSTYDADSVKGRFTISRDHAKNTVNLQMNSLKPEDTAVYYCAARYYAESYRYYYWGQGTQGTVSS”, with “high polyreactivity”. For the sequence “QVQLGESGGGLVQAGGSLRLSCAASGSTFNRYAMGWYIQAPGKERELVAAITVRGNTYYADSVKGRFTISRDNAKNTVDVQMNSVKPEDTAVYYCNAVSASPSYVYRPYFKRGYWGQGTQGTVSS”, the “polyreactivity (PSR sort gate)” value is “high polyreactivity”. Consider “QVQLGESGGGLVQAGGSLRLSCAASGSTFNRYAMGWYRQAPGKERELVAAISFSGGRTYYADSVKGRFTISRDNAKNTVYLQMNSLKPEDSAVYYCTKVVYGYFTRAYTYNYWGQGTQVTVSS”, for which the “polyreactivity (PSR sort gate)” value is “high polyreactivity”. Then “QVQLGESGGGLVQAGGSLRLSCAASGSTFPFNAMGWYRQAPGKERELVAAITLRGGRTYYADSVKGRFTISRDNAKNTVYLQMNSMKPEDTAVYYCAARHNPYRYYHWGQGTQVTVSS”, with “high polyreactivity”; and “QVQLGESGGGLVQAGGSLRLSCAGTGIIFARYVMGWEREAPGQDRELVAAIRRSGHSTYADSVKGRFTISRYNATNTLYLHMNSLKPEETAVYYCNAKGWISGRYSPYYRFDYWGQGTQVTVSS”, with “high polyreactivity”; and “QVQLGESGGGLVQAGGSLRLSCAPSGSIFGYYSMGWYRQAPGKERELVATITLSDDSTYYAVSVKGRFTISRDNAKITVYLQMNSLKPEDTAVYYCAAVRITRYQWDRSVGSGDYWGQGTQVTVSS”, with “high polyreactivity”. Then “QVQLGESGGGLVQAGGSLRLSFAASGRISKRNDRGWSRQAPGKERELVAGITSTGSTSYAHSVKGRFTISRDNAKKTVYLQMNSLKPEDTAVYYCAARGQATYNWGQGTQVTVSS”, with “high polyreactivity”; and “QVQLGESGGGLVQAGGSVRLSCAASGRTFDFYALGWYRQAPGKERELVAAISSRGGSTYYADSVKGRFTISRDNAKNTVYLQMNSLKPEDTAVYYGAKDLGYRGRYNYWGQGTQVTVSS”, with “low polyreactivity”; and “QVQLGESVGGLVQAGGSLRLSCAASGFTSRKNAMGWYRQAPGKERELVAAITQSSGRTYYADSVKGRFTISRVNAKNTVYLQMNRLKPEDTAVYYCAARRGGEDDYWGQGTQVTVSS”, with “low polyreactivity”. Consider “QVQLHESGGGLVLAGGSLRLSCSASGNISVYGSMGLYRQAPGKEREFVATIDPGTNTNYADSVKDRFSISRDNAKHTVYLQMNSLKPEDTAVYYCAVEAGSDWPYRYWGHGTQVTVSS”, for which the “polyreactivity (PSR sort gate)” value is “low polyreactivity”. To “QVQLHESGGGLVQAGGSLRLGCAPSGNISHAAYMGWYRQAPGKEREFVAAIAAGSNPNYADSVKGRFTISRDNAKNTVYLQMNSLKPEDTAVFYCAVASYARVQYEYWGQGTQVTVNS” belongs “low polyreactivity”; to “QVQLHESGGGLVQAGGSLRLSCAASGTISVTYNMAWYRQAPGKERECVAGNSTGATTNYADSVKGRFTIRRDNAKNTVYLQMNSLKPEDTAVYYCAAHIYRQDHFYYWGQGTQVTVSS”, “low polyreactivity”; to “QVQLHESGGGLVQAGGSLRLSCAASGTISYAGPRGWYRQAPGKERECVAGIGVGSNTNYADSVKGRYTIIRDNAKNTVYLQMNILKPEVTAVYYCAVGGYAPLGRPYWGQGTQVTVSS”, “low polyreactivity”. To “QVQLHESGGGLVQEGGSQRLSCAASGNIFYTYAMRWYRHAPGKEREFDATINHGTSINYADSVKGRFTISRDNAKNTVYLQMNSLKPEDTAVYYCAADLSWTDNLFYWGQGTQVTVSS” belongs “low polyreactivity”. To “QVQLHQSGGGLVQAGGTLRLSCAPSGNISVTYNMGWYRQAPGKEREFVAGNSTGATTNYADSVTGRFTISRDNAKNSVYLQMNSLKPEDTAVYYCAAHIYRQDHFYYWGQGTQVTVSS” belongs “low polyreactivity”; to “QVQLIESGGGLVQAGGSLRLSCAASGRTFYVNAMGWYRQAPGKERELVAAIRSGGSTSYADSVKGRFTISRDNAKNTVYLQMNSLKPEDTAVYYCAAKSGLDLYYGLGGYWGQGTQVTVSS”, “high polyreactivity”.

For “QVQLIESGGGLVQAGGSLRLSCAASGSIFAANAMGWYRQAPGKEREFVASISYTGASTYADSVKGRFTISRDNAKNTVYLQMKSLKPEDTAVYYCAKDGYWTGLDPYYYWGQGTQVTVSS”, the “polyreactivity (PSR sort gate)” value is listed as “low polyreactivity”. To “QVQLIESGGGLVQAGGSLRLSCAASGSIFQYTMGWYRQAPGKERELVAAITRSGSSTYYADSVKGRFTISRDNAKNTVYLQMNSLKPEDTAVYYCAHTIRRVLGYGSWGQGTQVTVSS” belongs “high polyreactivity”. To “QVQLKESCGGLVQAGGSLRLSCAASGTITYAPHKGWYRQAPGKERELVAGITIGGTTYYADSVKGRFTISRDNAKNTVYLQMNSLSPGDTAVYYCAAHSEQYTPFYYWGQGTQVTVSS” belongs “low polyreactivity”. With “QVQLLDSGGGLVQAGGSLRLSCAASGSIFYLNAMGWYRQAPVKEREFVAAITLRGGSSYYADSVKGRFTISRDYANNTFYLQMKSLKPEDTAFYYCNAGVALTYVHDGDYWGQGTQVTVSS”, the “polyreactivity (PSR sort gate)” value was “low polyreactivity”.

For “QVQLLESCGGLVQAGGSLRLSCAASGRIFSYYVMGWYRQAPGKERELVAAITSGGSTNYADSVKGRFTISRDNAKISVYLQLTSLKPVDTAVYYFNRAYTYINRLYGYWGQGTEVTVSS”, the “polyreactivity (PSR sort gate)” value is recorded as “high polyreactivity”. To “QVQLLESGGGIVQAGGSLRLSCAASGRTFYVYGMGWYRQAPGKERELVAAISKRGDNTYYADAVKGRFTISRDNAKNTVYLQMNSLKPEDTAVYYCNVKLYGGRSDYWGQGTQVTVSS” belongs “high polyreactivity”. For the sequence “QVQLLESGGGLDQAGGSLRLSTAASGSTFGVYAMGWYRQARGKEREMVAAISRRGGSTYYADSVKGRFTISRDNAKNTVYLQMNSLKPEDTAVYYCAARGGQMEYWGQGTQVTVSS”, the “polyreactivity (PSR sort gate)” value is listed as “high polyreactivity”. Consider “QVQLLESGGGLFQTGGSLRLSCAASGRTFWNYAKGWYRQAPGKERELVAVIRFSDGSTYYADSVKGRFTISRDNAKNTVYLQMNSLKPQDTAVYYSAAKGPRRWGSGFDYWGQGTQVTVSS”, for which the “polyreactivity (PSR sort gate)” value is given as “low polyreactivity”. Then “QVQLLESGGGLLQAGGSLRLSCAASGRIFKFNAMGWYRQAPGKERELVAAISKRGGSTYYADSVKGRFTISRDNAKNTVYLQMNSLNPEDTAVYYCAAPIYNGYASWQVYYWGQGTQVTVSS”, with “high polyreactivity”. To “QVQLLESGGGLVKAGGSLRLTCADSGRTLYRYAMGWYRQAPGKERELVAAINQSGGRTYYADSVKGRFTISRDNAKNTVYLQMNSLKPDDTAVYYCNTASSRAFLTHGRYGRSDYWGQGTQVTVSS” belongs “high polyreactivity”; to “QVQLLESGGGLVPARGSLRLSCAASGRIFPQYVMGWYRQAPGKEREFVATISYSGGRTYYADSVKGRFTISRDNAMNTVYVQMNSLKPEDTAVYDCAAGTSAGWADDYWGQGTQVTVSS”, “high polyreactivity”; to “QVQLLESGGGLVQAGGILRLSCAASGRTLHYSAMGWYRQAPGIERELVAAISARGGRTYYADSVKGRFTISRDNAKNTVYLLMQTLKPEDTAVYYCAAAGYITRYDRYDYWGQGTHVTVSS”, “high polyreactivity”. To “QVQLLESGGGLVQAGGSLRLSCAASASTFWFYAMGWYIQAPGKERELVAAISSTGSTNYADSVKGRFTISRDNAKNTVYLQMNSLKPEDTAVYYCATQEGPHKLDPRGYYWGQGTQVTVSS” belongs “low polyreactivity”. “QVQLLESGGGLVQAGGSLRLSCAASGGTFRVYAMGWYRQAPVKEWELVAAISSGGSTNYADSVKGRFTISRDNAKNTVYLQMNSLIPEDTAVSYCNAKYRYRFARSPIYFYWGQGTQVTVSS”: the “polyreactivity (PSR sort gate)” value is listed as “low polyreactivity”. Then “QVQLLESGGGLVQAGGSLRLSCAASGITFPYYAMGWYRQAPGKERELVAAISSSGGSTYYADSVKGRFTISRDIAKNTVYLQMNSLKPEDTAVYYCAAQRYINYDYWGQGTQVTVSS”, with “high polyreactivity”.

“QVQLLESGGGLVQAGGSLRLSCAASGLIFAGNAMGWYRQAPGKERELVAAISSSGGRTYYADSVKGRFTFSRDNAKNTVYLQMYSLKPEDTAVYYCAAVRTGYYRQYDYWGQGTQVTVSS”: the “polyreactivity (PSR sort gate)” value was “high polyreactivity”. Then “QVQLLESGGGLVQAGGSLRLSCAASGLIFKYYAMGWYRQAPGKERELVAVITSSGGSTYYADSVKGRFTISRDNANNTVYLQMNSLKPEDTAVYYCAARRVRWPYDYWGQGTQVTVSS”, with “high polyreactivity”.

“QVQLLESGGGLVQAGGSLRLSCAASGLIYVNNPMGWYRKATGKETELVATISSGVSTNYADSVKGRFTISRENAKNSVYLHMNSLKPEDTAVYYCNKGQTVSRGYRLYERYDYWGQGTQVTVSS”: the “polyreactivity (PSR sort gate)” value is recorded as “low polyreactivity”. Turning to “QVQLLESGGGLVQAGGSLRLSCAASGLTFGWYAMGWYRQAPGKERELVAAITWNSGSTYYADSVKGRFTISRDNAKNTVYLQMNSLKPVDTAVYYCAAGYQDSQEYDYWGQGTQVTVSS”, the “polyreactivity (PSR sort gate)” value was “low polyreactivity”.

As to “QVQLLESGGGLVQAGGSLRLSCAASGRIFLRYVMGWYRQAPGKERELVAAIRSNGGSTYADSVKGRFTSSRDNAKNTVYLHMNSLKPEDTAVYYCAARYVITKGSFVVGYGYWGQGTQVTVSS”, the “polyreactivity (PSR sort gate)” value is on record as “high polyreactivity”. Then “QVQLLESGGGLVQAGGSLRLSCAASGRIFNYNVMGWYRQAPGKERELVAAISRRGTSTFYADSVKGRFTISRDNAKNTVYLQMNSLIPVDTAVYYCAADFYSNHYDYWGQGTQVTVSS”, with “high polyreactivity”. To “QVQLLESGGGLVQAGGSLRLSCAASGRIFVSNAMGWYRQAPGKERELVAAISKSGGRTYYADSVKGRFTISRDNAKNTVYLQMNSLKPEDTAVYYCAADIFTQGFDYWGQGTQVTVSS” belongs “high polyreactivity”.
